Literature values as cited in publication PMC9437294.

Biological target: 5-HT1A receptor C-terminus (UniProt P19327)

Kd: 37 nM
Substance: Yif1B N-terminal region (from UniProt Q6PEC3)
